The values that follow come from article PMC5440646, “T Cell Costimulation by CD6 Is Dependent on Bivalent Binding of a GADS/SLP-76 Complex” (Molecular and Cellular Biology, 2017).

Broadly, the pKd is −log10 of the Kd, conventionally taken in molar units.

pKd: −log10 of the molar value. Where two headings read alike, the source gives them in different places.

One assay concerns the target SLP-76 (UniProt Q13094). Briefly: CD6 MAb immunoprecipitation, Western blot. The settings on record: reference: wild-type CD6-EGFP; sites Y662. On the technique in general: In western blotting, separated proteins are transferred to a membrane and probed.
In assay [1] the target is long CD6 peptide phosphorylated at Y629 and Y662 (human). The experiment in a line: SPR; biotinylated long CD6 peptides immobilised at ~50 response units on streptavidin-coated CM5 chips, BIAcore 3000; SH2 domains injected at 10 μl/min at 37°C; equilibrium binding, 1:1 Langmuir. A general note: In SPR one partner is held on a chip, and binding of the other changes the refractive index at the surface.

Assay [2] concerns the target long CD6 peptide phosphorylated at Y662 (human). The assay is described as above.
Assay [3] addresses SLP-76 proline-rich motif (Homo sapiens) (UniProt Q13094). Conditions: cited from earlier work.
A further assay addresses GADS (UniProt O75791). Briefly: CD6 MAb immunoprecipitation, Western blot. Conditions: reference: wild-type CD6-EGFP; sites Y629.
Assay [4] deals with SLP-76 proline-rich motif (Homo sapiens) (UniProt Q13094). The settings on record: cited from earlier work. This is another data set of the same source.
Assay [5] deals with long CD6 peptide phosphorylated at Y629 (human). The experiment in a line: SPR; biotinylated long CD6 peptides immobilised at ~50 response units on streptavidin-coated CM5 chips, BIAcore 3000; SH2 domains injected at 10 μl/min at 37°C; equilibrium binding, 1:1 Langmuir.
Chain of long CD6 peptide phosphorylated at Y629 (human) (P30203 622-668): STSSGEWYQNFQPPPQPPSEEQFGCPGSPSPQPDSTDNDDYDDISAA

Chain of long CD6 peptide phosphorylated at Y629 and Y662 (human) (P30203 622-668): as above
Chain of long CD6 peptide phosphorylated at Y662 (human) (P30203 622-668): as above
Chain of GRB2 C-terminal SH3 (P62993 156-215): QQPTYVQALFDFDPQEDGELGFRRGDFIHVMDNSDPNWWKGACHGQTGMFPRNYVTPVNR
Chain of GADS C-terminal SH3 (O75791 271-330): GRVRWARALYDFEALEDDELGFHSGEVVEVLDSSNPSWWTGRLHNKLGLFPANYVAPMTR

Consider CD6 (from UniProt P30203) Y662F, for which, in the assay with SLP-76, the “binding against the reference” value is “weaker”. On to “SLP-76 SH2 domain, His-tagged (from UniProt Q13094 422-530) (domain or fragment)”, for which the pKd in assay [1] and in assay [2] was 5.70 to 6.52 each time. On to “GRB2 C-terminal SH3 (from UniProt P62993)”, for which the pKd in assay [3] is 5.00. In the case of CD6 (from UniProt P30203) Y629F, in the assay with GADS, the “binding against the reference” value is on record as “weaker”. For “GADS C-terminal SH3 (from UniProt O75791)”, the pKd in assay [4] was 6.70. As for “GADS SH2 domain, His-tagged (from UniProt O75791 58-149) (domain or fragment)”, the pKd in assay [1] is 5.70 to 7.00; in assay [5], 6.22 to 6.70.
